This data set relates to ATP. As to the kind of experiment: switch fluorescence ratio, 500 uM ATP over buffer (Cy3 cluster intensity, sum of 5 cycles each) (fold (ratio)); higher = stronger signal-on switching upon ATP binding; sequences stand for … in TCGTCGGCAGCGTCAGATGTGTATAAGAGACAGTTTTTTTTTTTTTTTTTTTTTTTTT…TC. To be noted: aptamer strand: ATP DNA aptamer (quencher-CACCTGGGGGAGTATTGCGGAGGAAGG + anchor), 100 nM annealed; ATP concentration: 500 uM. The gist of the method: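 Values give the fluorescence ratio for each switch-domain sequence, averaged from per-cluster ratios of summed target-cycle to summed buffer-cycle Cy3 intensity. The Cy3-labelled switching-strand clusters sat on a modified Illumina MiSeq flow-cell, were annealed to 100 nM quencher-labelled ATP aptamer, and were imaged in selection buffer, then after 15 min with 500 uM ATP at 22 °C. Five cycles ran with NaOH stripping and re-annealing between them, and clusters outside 100-1000 RFU were excluded.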

In the supplement of paper PMC10126150 one finds switch fluorescence ratio data, which are given here for 78 sequences.

± gives the standard deviation of the averaged measurements.
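Note: ATP exposure 15 min at 22 °C before imaging.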

TTTTTTATGA: the switch fluorescence ratio was determined as 1.03 ± 0.027.

Consider TTGGGGCGGT, for which the switch fluorescence ratio amounted to 1.05 ± 0.15.

With GTTTTGTCAT, the switch fluorescence ratio worked out at 1.01 ± 0.035.

As for CGTAGGGGGG, the switch fluorescence ratio stood at 0.986 ± 0.03.

GCGATACTCG: the switch fluorescence ratio turned out to be 3.56 ± 0.16.

ATTCGATTTT: the switch fluorescence ratio is 0.999 ± 0.019.

In the case of AGGAAACGGG, the switch fluorescence ratio stood at 0.978 ± 0.018.

Consider TTAAAGGCGT, for which the switch fluorescence ratio is 0.982 ± 0.021.

Turning to AATGGCAGGG, the switch fluorescence ratio was determined as 0.988 ± 0.039.

As to GGGACTTATG, the switch fluorescence ratio is 1 ± 0.013.

Consider GGGGTGGGTT, for which the switch fluorescence ratio came out at 0.985 ± 0.036.

Regarding CTCCATGGTT, the switch fluorescence ratio amounted to 1.06 ± 0.024.

With TTGAGTATGC, the switch fluorescence ratio came out at 1.07 ± 0.047.

In the case of CTCCTTGTCG, the switch fluorescence ratio was found to be 1.014 ± 0.0077.

AGGAGAGACC: the switch fluorescence ratio worked out at 0.9848 ± 0.0029.

For AGGTTACAAT, the switch fluorescence ratio amounted to 1.04 ± 0.043.

For TTAATTCGCT, the switch fluorescence ratio stood at 1.04 ± 0.098.

ATTGAATTTT: the switch fluorescence ratio stood at 0.9795 ± 0.0038.

On to AGGCAGATGG, for which the switch fluorescence ratio was determined as 0.998 ± 0.021.

On to AGGCGCAATT, for which the switch fluorescence ratio amounted to 1.81 ± 0.94.

In the case of GGATTAGACG, the switch fluorescence ratio came to 0.955 ± 0.062.

For TTGTGTAGGC, the switch fluorescence ratio is 0.984 ± 0.025.

Consider CAGTCTGGTG, for which the switch fluorescence ratio was 1.01 ± 0.025.

For GCCATAATTA, the switch fluorescence ratio amounted to 0.981 ± 0.018.

For the sequence AACAGGGCAC, the switch fluorescence ratio worked out at 1.018 ± 0.0051.

In the case of GAGGAGGGGG, the switch fluorescence ratio stood at 0.986 ± 0.032.

Consider GGGAAATATG, for which the switch fluorescence ratio worked out at 1.01 ± 0.012.

For TTCGTGTTAC, the switch fluorescence ratio turned out to be 1.32 ± 0.26.

GGGGGGCAAG: the switch fluorescence ratio was 0.9858 ± 0.009.

On to ATTTTTCTAT, for which the switch fluorescence ratio came out at 0.987 ± 0.027.

For GCTTACGGGG, the switch fluorescence ratio came out at 1.04 ± 0.049.

As to TTGACGTATA, the switch fluorescence ratio is 1.96 ± 1.2.

For the sequence TAGTGCCGGG, the switch fluorescence ratio is 1.06 ± 0.07.

In the case of TACATTTATA, the switch fluorescence ratio is 1.02 ± 0.019.

Consider ACGGGTTGTT, for which the switch fluorescence ratio was determined as 1.02 ± 0.021.

Turning to CGGTTATTAG, the switch fluorescence ratio amounted to 0.9897 ± 0.0066.

With GTTGTCGCTT, the switch fluorescence ratio turned out to be 0.9811 ± 0.0057.

For the sequence CGATCAATAT, the switch fluorescence ratio was 2.38 ± 0.035.

On to TTTAATACGC, for which the switch fluorescence ratio amounted to 1.38 ± 0.26.

Regarding TTAGGGTTTG, the switch fluorescence ratio stood at 0.995 ± 0.029.

As for TCTTGGGGG, the switch fluorescence ratio was 1.05 ± 0.012.

In the case of AATGTTTTGG, the switch fluorescence ratio was determined as 0.9952 ± 0.0081.

Take CCGTGCTTTT: the switch fluorescence ratio came out at 1.08 ± 0.047.

Consider CTTTCATCTA, for which the switch fluorescence ratio was determined as 1.01 ± 0.03.

As for ATGAGTTATT, the switch fluorescence ratio was found to be 1.01 ± 0.013.

On to CTTTGTATTC, for which the switch fluorescence ratio came out at 1.04 ± 0.022.

Take CATAATTGGG: the switch fluorescence ratio was found to be 0.995 ± 0.028.

As to TGGGGGAGGA, the switch fluorescence ratio worked out at 0.979 ± 0.02.

As for CAAGGGGCAC, the switch fluorescence ratio came to 1.02 ± 0.02.

For AAACGGGGGT, the switch fluorescence ratio stood at 0.991 ± 0.0073.

As to GTGGTAGGTA, the switch fluorescence ratio came out at 0.998 ± 0.021.

Consider GGGAACAGGG, for which the switch fluorescence ratio turned out to be 1.003 ± 0.0024.

As for AATGATAGTA, the switch fluorescence ratio was found to be 1.006 ± 0.0034.

Turning to TGTCGGGATT, the switch fluorescence ratio was found to be 1.03 ± 0.053.

With AGCAAGGGGA, the switch fluorescence ratio amounted to 1.07 ± 0.058.

ACGAGAGATT: the switch fluorescence ratio turned out to be 1.42 ± 0.48.

As to AAAAGTTATT, the switch fluorescence ratio was 0.986 ± 0.027.

Turning to AGTTTACGTG, the switch fluorescence ratio was found to be 1 ± 0.0033.

Consider TGCTGTAACG, for which the switch fluorescence ratio stood at 1.02 ± 0.017.

Take GTTTTAACAT: the switch fluorescence ratio amounted to 0.9895 ± 0.0073.

Take GACTATTTGG: the switch fluorescence ratio stood at 1.02 ± 0.044.

On to TCGCGGTTAT, for which the switch fluorescence ratio was 1.06 ± 0.029.

GTCGGATAGT: the switch fluorescence ratio is 0.996 ± 0.013.

For CCGGGGGAAT, the switch fluorescence ratio stood at 1.13 ± 0.16.

Turning to TAGAGATGGT, the switch fluorescence ratio was found to be 0.962 ± 0.024.

With ACTCAGGGGG, the switch fluorescence ratio came to 1.27 ± 0.32.

For TAGGCTCCAA, the switch fluorescence ratio was 1.01 ± 0.02.

Consider CACGCACATG, for which the switch fluorescence ratio is 1.5 ± 0.076.

As for TTCCGGGCTT, the switch fluorescence ratio amounted to 1.41 ± 0.38.

For the sequence TGGGACATGG, the switch fluorescence ratio worked out at 0.995 ± 0.031.

For GGGGGAGAGG, the switch fluorescence ratio worked out at 0.99 ± 0.029.

For the sequence ATACCAGGCG, the switch fluorescence ratio turned out to be 1.24 ± 0.069.

In the case of GAAGAAAGGT, the switch fluorescence ratio was found to be 0.966 ± 0.064.

For the sequence GCGCTTGAAC, the switch fluorescence ratio was found to be 1.15 ± 0.051.

For the sequence GGGCGGTTTG, the switch fluorescence ratio came out at 0.971 ± 0.046.

As to ATATTTGATT, the switch fluorescence ratio came out at 0.977 ± 0.021.

With AGGAGGGGGT, the switch fluorescence ratio stood at 0.991 ± 0.033.

Consider TTCGTGGTTG, for which the switch fluorescence ratio was 0.967 ± 0.034.
